Results from paper PMC4914113, “Another look at the mechanism involving trimeric dUTPases in Staphylococcus aureus pathogenicity island induction involves novel players in the party” (Nucleic Acids Research, 2016).

How the values were obtained:
Test in all cases: BLI; BLItz; His-tagged Dut immobilised at 1 μM on Ni-NTA biosensors, Stl in solution (at least five dilutions, 4 to 0.062 μM); buffer STL (400 mM NaCl, 75 mM HEPES pH 7.5, 5 mM MgCl2, 2 mM DTT); no nucleotide; 1:1 model
[1] = molecular target: Dut80α^IV-11 (Staphylococcus aureus phage 80α)
[2] = molecular target: Dut80α^G164S (Staphylococcus aureus phage 80α)
[3] = molecular target: Dutϕ11^ΔVI, Dutϕ11 lacking motif VI (Staphylococcus aureus phage ϕ11)
[4] = molecular target: Dutϕ11^WT, wild-type dUTPase of phage ϕ11 (Staphylococcus aureus phage ϕ11)
[5] = molecular target: Dut80α^ΔVI-IV-11 (Staphylococcus aureus phage 80α)
[6] = molecular target: Dutϕ11^ΔVI-IV-80α (Staphylococcus aureus phage ϕ11)
[7] = molecular target: Dut80α^ΔV, Dut80α motif V deletion mutant (Staphylococcus aureus phage 80α)
[8] = molecular target: Dutϕ11^IV-80α (Staphylococcus aureus phage ϕ11)
[9] = molecular target: Dut80α^WT, wild-type dUTPase of phage 80α (Staphylococcus aureus phage 80α)
[10] = molecular target: Dut80α D81A D110C S168C (Staphylococcus aureus phage 80α)
[11] = molecular target: Dut80α^F165A (Staphylococcus aureus phage 80α)
[12] = molecular target: Dut80α^D81A (Staphylococcus aureus phage 80α)
[13] = molecular target: Dutϕ11^ΔV, Dutϕ11 motif V deletion mutant (Staphylococcus aureus phage ϕ11)

“Stl repressor from SaPIbov1 (natural protein)” showed a Kd [1] of 3.13 nM, a koff [1] of 0.00021 s⁻¹ and a kon [1] of 67000 M⁻¹ s⁻¹. The Kd [2] was 156 nM, the koff [2] was 0.0047 s⁻¹ and the kon [2] was 30000 M⁻¹ s⁻¹. For the same substance, the Kd [3] was 11.4 nM, the koff [3] was 0.00024 s⁻¹ and the kon [3] was 21000 M⁻¹ s⁻¹. The Kd [4] was 1.84 nM, the koff [4] was 9.2e-05 s⁻¹ and the kon [4] was 50000 M⁻¹ s⁻¹. For the same substance, the Kd [5] was 4.56 nM, the koff [5] was 0.00026 s⁻¹ and the kon [5] was 57000 M⁻¹ s⁻¹. For the same substance, the Kd [6] was greater than 1000 nM, the Kd [7] was 530 nM and the koff [7] was 0.009 s⁻¹. It also gave a kon [7] of 17000 M⁻¹ s⁻¹, a Kd [8] of 3.33 nM and a koff [8] of 0.00025 s⁻¹. For the same substance, the kon [8] was 75000 M⁻¹ s⁻¹, the Kd [9] was 40 nM and the koff [9] was 0.001 s⁻¹. For the same substance, the kon [9] was 25000 M⁻¹ s⁻¹, the Kd [10] was 58.3 nM and the koff [10] was 0.0014 s⁻¹. It also gave a kon [10] of 24000 M⁻¹ s⁻¹, a Kd [11] of 581 nM and a koff [11] of 0.0157 s⁻¹. For the same substance, the kon [11] was 27000 M⁻¹ s⁻¹, the Kd [12] was 161 nM and the koff [12] was 0.0042 s⁻¹. For the same substance, the kon [12] was 26000 M⁻¹ s⁻¹, the Kd [13] was 1.42 nM and the koff [13] was 4e-05 s⁻¹. The kon [13] was 28000 M⁻¹ s⁻¹.
